Measurements: paper PMC314469, “Protein Interaction Networks by Proteome Peptide Scanning” (PLoS Biology, 2004)

T1: Boi1 SH3 (BOI1_YEAST), P38041
T1 chain: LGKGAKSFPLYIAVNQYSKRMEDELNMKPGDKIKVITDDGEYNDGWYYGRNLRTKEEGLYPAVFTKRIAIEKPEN

T2: Boi2 SH3 (BOI2_YEAST), P39969
T2 chain: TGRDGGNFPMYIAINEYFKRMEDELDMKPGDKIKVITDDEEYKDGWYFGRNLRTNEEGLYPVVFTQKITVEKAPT

T3: Myo5 SH3 (MYO5_YEAST), Q04439
T3 chain: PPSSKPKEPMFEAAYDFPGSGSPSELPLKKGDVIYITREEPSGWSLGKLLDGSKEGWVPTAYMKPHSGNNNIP

T4: Rvs167 SH3 (RV167_YEAST), P39743
T4 chain: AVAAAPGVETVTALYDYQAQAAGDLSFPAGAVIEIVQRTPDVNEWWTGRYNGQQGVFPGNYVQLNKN

T5: Yfr024 SH3 (LSB3_YEAST), P43603
T5 chain: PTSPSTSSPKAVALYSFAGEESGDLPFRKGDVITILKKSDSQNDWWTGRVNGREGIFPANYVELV

T6: Yhr016c SH3 (YSC84_YEAST), P32793
T6 chain: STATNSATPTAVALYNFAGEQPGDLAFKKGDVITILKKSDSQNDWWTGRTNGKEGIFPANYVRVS


Legend:
Assay in all cases: SPOT array
[1] = target: T1, Boi1 SH3 (BOI1_YEAST), P38041
[2] = target: T2, Boi2 SH3 (BOI2_YEAST), P39969
[3] = target: T3, Myo5 SH3 (MYO5_YEAST), Q04439
[4] = target: T4, Rvs167 SH3 (RV167_YEAST), P39743
[5] = target: Sho1 SH3 (SHO1_YEAST), P40073
Sequence of Sho1 SH3 (SHO1_YEAST), P40073 (P40073 295-366): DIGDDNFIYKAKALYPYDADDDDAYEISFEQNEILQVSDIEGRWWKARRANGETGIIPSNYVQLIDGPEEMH

[6] = target: T5, Yfr024 SH3 (LSB3_YEAST), P43603
[7] = target: T6, Yhr016c SH3 (YSC84_YEAST), P32793

Row | Binder | normalised SPOT signal, Boehringer light units (BLU); mean over the file's lines of this peptide [1] | normalised SPOT signal, Boehringer light units (BLU); mean over the file's lines of this peptide [2] | normalised SPOT signal, Boehringer light units (BLU); mean over the file's lines of this peptide [3] | normalised SPOT signal, Boehringer light units (BLU); mean over the file's lines of this peptide [4] | normalised SPOT signal, Boehringer light units (BLU); mean over the file's lines of this peptide [5] | normalised SPOT signal, Boehringer light units (BLU); mean over the file's lines of this peptide [6] | normalised SPOT signal, Boehringer light units (BLU); mean over the file's lines of this peptide [7]
1 | YPNGRTLPPVPTQV [YER064C 178-191] | -0 | 18.3 | 172 | 922 | 17400 | 1460 | 505
2 | YVNAKLDPSLPSQY [YDR147W 90-103] | 71.4 | 10.8 | 97.1 | 41.1 | 29.3 | 91.6 | 17.8
3 | YSYLRLLPWWPSLA [YJL083W 456-469] | 94.5 | 54.3 | 188 | 115 | 138 | 94.4 | 99.5
4 | YKNRKNLPTIPIRL [YGL085W 139-152] | 12400 | 48.9 | 961 | 2750 | 28200 | 2960 | 538
5 | YGSEKGSPAGPSAV [YDR429C 58-71] | 65.1 | 40 | 50.3 | 28.6 | 46.4 | 13.4 | 8.8
6 | YGDNKKNPESPESV [YDL133W 210-223] | 79.4 | 8.4 | 147 | 3.3 | 25.3 | 13.3 | 19.5
7 | YWGKKFEPERPFEF [YJR137C 1187-1200] | 678 | 266 | 385 | 350 | 460 | 1160 | 324
8 | YFVKKIRPGNPLTK [YJL149W 279-292] | 410 | 58.3 | 508 | 220 | 139 | 244 | 92.2
9 | YEGPRGAPGMPEML [YJR016C 463-476] | 64 | 26.3 | 166 | 63.3 | 39.6 | 131 | 15.4

Continued, values first:

Row | normalised SPOT signal, Boehringer light units (BLU); mean over the file's lines of this peptide [1] | normalised SPOT signal, Boehringer light units (BLU); mean over the file's lines of this peptide [2] | normalised SPOT signal, Boehringer light units (BLU); mean over the file's lines of this peptide [3] | normalised SPOT signal, Boehringer light units (BLU); mean over the file's lines of this peptide [4] | normalised SPOT signal, Boehringer light units (BLU); mean over the file's lines of this peptide [5] | normalised SPOT signal, Boehringer light units (BLU); mean over the file's lines of this peptide [6] | normalised SPOT signal, Boehringer light units (BLU); mean over the file's lines of this peptide [7] | Binder
10 | 222 | 44.9 | 188 | 176 | 19.5 | 113 | 27.8 | YILPKTDPRSPYYI [YPR115W 96-109]
11 | 534 | 107 | 271 | 8430 | 179 | 17300 | 5100 | YSTNRGIPARPSKD [YPL073C 79-92]
12 | 17.5 | 17.8 | 15900 | 163 | 63.5 | 330 | 32.3 | YVKERRPPPPPPLL [YLR425W 99-112]
13 | 234 | 28.9 | 194 | 33.5 | 332 | 163 | 39.5 | YVVKKNFPVSPNYT [YMR015C 408-421]
14 | 174 | 59.5 | 180 | 490 | 2350 | 952 | 765 | YVNPRNLPSVPNGL [YLR418C 264-277]
15 | 227 | 273 | 288 | 310 | 59.1 | 391 | 253 | YYYYKHYPNMPPIN [YMR313C 453-466]
16 | 1330 | 23.2 | 345 | 201 | 118 | 159 | 32.8 | YVYGRQDPKKPFFT [YNL137C 410-423]
